Experimental data published in paper PMC3659600.

Substrate: O=[N+]([O-])c1ccc(O[C@@H]2O[C@H](CO)[C@@H](O)[C@H](O)[C@H]2O)cc1
Assay: purified protein
Conditions: pH 6.0 sodium phosphate 50 mM, 37 °C, 0.1-5 mM substrate

B1: BglF3 (Flavobacterium johnsoniae UW101) (protein)
chain: KNKMIYLSAALVFAFFTSCKNETQTSASNSSQTEEYVGKEISTDHDAEIDKLISQMTLEEKIGMLHGNSMFANAGVKRLGIPELKMADGPLGVREEISRDNWAPAGWTNDFATYYPAGGALAATWNAEMAHTFGTSLGEELRARDKDMLLSPAINMVRTPLGGRTYEYMSEDPFLNKKIAVPLVVGLQEKDVMACVKHYAANNQETNRDFVDVQIDERTLREIYLPAFEATVKEAKAYSIMGAYNKFRGEYLCENDYMLNKILRDEWGFKGVVVSDWAAVHSTAKSLKNGLDIEMGTPKPFNEFFLADKLIAAVKSGEVSEKEIDLHVKRILRVLFQVKAMGGGERAKGSIATEAHYQDAYKIAAEAIILLKNENNALPLKLDGVKSIAVIGNNATKKNALGGFGAGVKTKREVTPLEGLKNRLPSSVKINYAEGYLEKYEEKNKGNLGNITSTGPVTIDKLDPAKVQEAVEAAKKSDVAIIFAGSNRDYETEASDRRDLHLPFGQEELIKKVIEANPKTIVVMIAGAPFDLNEVSQKSSALVWSWFNGSEGGNALADVILGKVNPSGKLPWTMPKQLKDSPAHATNSFPGDKAVNYAEGILIGYRWFDTKNVAPLYPFGYGLSYTTFALDNAKTDKDSYAQNDVIEVTVDVKNTGKVDGKEVVQLYTSKSDSKITRAAQELKGFKKADVKAGGSEKITIKVPVKELAYYDVAAKKWTVEPGKYTIKLGTSSRDIKKEINFTIK
Km: 910 ± 20 µM
